Measured values reported in US20080274950A1 (BABRAHAM INSTITUTE, published 2008).
Where a chain is given by its changes, count along the chain named. In names and notes the source's numbering stands. One block for each binder: values may come before it.

Columns and labels:
[1] = target: T1, full length chicken N-cadherin with the mutation E89A expressed on K562 cells (chicken, UniProt P10288 165-912, E89A); assay: adhesion of K562 transfectants to coated N-cadherin Fc
T1 construct: whole, on cells; also called cells expressing the E89A mutation; K562 E89A
T1 sequence (looked up): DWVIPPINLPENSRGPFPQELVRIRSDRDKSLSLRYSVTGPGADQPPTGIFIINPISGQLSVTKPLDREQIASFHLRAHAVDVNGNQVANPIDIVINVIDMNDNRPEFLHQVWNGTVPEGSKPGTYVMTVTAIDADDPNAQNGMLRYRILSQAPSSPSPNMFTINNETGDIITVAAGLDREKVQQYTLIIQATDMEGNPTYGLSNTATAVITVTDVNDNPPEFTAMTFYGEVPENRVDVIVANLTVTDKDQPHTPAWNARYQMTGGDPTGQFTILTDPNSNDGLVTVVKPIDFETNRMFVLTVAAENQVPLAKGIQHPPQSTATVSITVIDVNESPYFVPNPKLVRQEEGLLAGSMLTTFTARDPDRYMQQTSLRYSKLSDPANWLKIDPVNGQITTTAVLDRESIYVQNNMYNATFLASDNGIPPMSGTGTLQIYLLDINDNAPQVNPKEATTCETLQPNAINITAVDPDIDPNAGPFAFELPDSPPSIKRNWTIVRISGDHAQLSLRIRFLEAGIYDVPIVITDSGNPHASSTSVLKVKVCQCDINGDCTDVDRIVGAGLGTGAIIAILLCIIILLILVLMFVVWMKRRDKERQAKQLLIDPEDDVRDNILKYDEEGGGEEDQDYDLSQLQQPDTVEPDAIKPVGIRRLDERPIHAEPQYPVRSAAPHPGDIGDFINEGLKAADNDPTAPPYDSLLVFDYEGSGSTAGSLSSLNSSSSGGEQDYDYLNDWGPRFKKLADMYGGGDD
Experimental: Adhesion tests were conducted substantially as described in Example 1. Briefly, K562 Cells or L cells transfected with wild type or mutant N-cadherin were allowed to settle for 45 minutes at 37° C. onto N-cadherin Fc fusion proteins coated at 1 μg/ml to a 96 well plate. Non-adherent cells were then washed off and residual adherent cells were quantitated by measuring acid phosphatase activity. Assays were conducted in quadruplicate and results are expressed as % cells adhering +/−SEM.

[2] = target: the molecule itself; assay: bead aggregation assay, 1.25 mM CaCl2
Experimental: (§1) Dynabeads (Dynal Biotech) coupled to Protein A were coated with N-cadherin Fc at 1 μg/ml in calcium and magnesium-free HBSS containing 0.1% Tween 20, 1% FCS and 4 mM EDTA. Eppendorf tubes containing beads and fusion protein were rotated slowly for 1 hour at room temperature to allow binding to take place. The beads were then washed in the above assay buffer lacking EDTA and then resuspended in the same buffer supplemented with 1.25 mM CaCl₂. Beads were allowed to aggregate in a volume of 100 μl for 2 hours at 37° C. by slow rotation, in an eppendorf tube, at approximately 20 rpm. Aggregation was then assessed by light microscopy.
In the experiments described so far in this example, disruption of the salt bridge prevented intramolecular docking of Trp 2 in one or both components of the dimer. In an alternative strategy to prevent intramolecular docking, we removed Trp2 by introducing the mutation W2G or blocked the hydrophobic acceptor pocket with an isoleucine side chain projecting into the cavity using the mutation A801. N-cadherin Fc fusion proteins with these mutations were then tested against our panel of K562 transfectants (FIG. 17a). In keeping with the explanation given in FIG. 5, the W2G mutant acted as a strand acceptor and therefore adhered strongly to the E89A mutant whereas the A80I mutant was a strand donor and adhered to the GG extension mutant. […] In contrast, beads coated with the W2G or A801 mutants and tested separately clustered in twos and threes, whereas beads coated with the negative control mutant, D134A, were entirely monodisperse. To test whether all five extracellular domains of N-cadherin (EC1-EC5) are necessary for the strong adhesive interaction between the complementary mutants, we compared the adhesive activity of the W2G mutant prepared as a full length (EC1-EC5) Fc fusion protein with that of the same mutant prepared as a truncated construct containing only cadherin domains EC1 and EC2.

[3] = target: T2, chicken N-cadherin Fc fusion protein with the pocket-blocking mutation A80I (chicken; human, UniProt P10288 165-728, A80I); assay: bead aggregation assay, Protein A Dynabeads coated separately and mixed, 1.25 mM CaCl2
T2 construct: extracellular domain; also called A80I mutant; not shown: hinge region, CH2 and CH3 domains of human IgG1 heavy chain (vector pIgSig)
T2 sequence (looked up): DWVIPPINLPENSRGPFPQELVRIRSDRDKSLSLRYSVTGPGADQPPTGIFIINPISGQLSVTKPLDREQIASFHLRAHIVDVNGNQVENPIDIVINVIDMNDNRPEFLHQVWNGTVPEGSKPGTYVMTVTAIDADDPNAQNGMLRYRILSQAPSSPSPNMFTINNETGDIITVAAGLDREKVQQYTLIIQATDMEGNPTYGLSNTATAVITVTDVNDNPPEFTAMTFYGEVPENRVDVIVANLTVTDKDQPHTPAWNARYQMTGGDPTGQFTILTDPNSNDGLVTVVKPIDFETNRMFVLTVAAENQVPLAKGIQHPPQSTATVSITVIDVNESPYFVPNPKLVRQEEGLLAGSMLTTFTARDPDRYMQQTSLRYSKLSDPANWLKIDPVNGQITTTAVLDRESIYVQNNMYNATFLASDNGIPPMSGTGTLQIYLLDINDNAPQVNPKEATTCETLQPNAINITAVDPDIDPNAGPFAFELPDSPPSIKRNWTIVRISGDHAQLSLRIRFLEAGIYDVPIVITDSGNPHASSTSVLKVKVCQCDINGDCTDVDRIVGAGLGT
Experimental: as §1
In the experiments described so far in this example, disruption of the salt bridge prevented intramolecular docking of Trp 2 in one or both components of the dimer. In an alternative strategy to prevent intramolecular docking, we removed Trp2 by introducing the mutation W2G or blocked the hydrophobic acceptor pocket with an isoleucine side chain projecting into the cavity using the mutation A801. N-cadherin Fc fusion proteins with these mutations were then tested against our panel of K562 transfectants (FIG. 17a). In keeping with the explanation given in FIG. 5, the W2G mutant acted as a strand acceptor and therefore adhered strongly to the E89A mutant whereas the A80I mutant was a strand donor and adhered to the GG extension mutant. […]

[4] = target: the molecule itself; assay: gel filtration on Superdex-200, 1 mM CaCl2
Text: Soluble N-cadherin-Fc fusion protein was obtained by transient transfection of Cos7 Cells as previously described (Corps et al., 2003). […] Soluble N-cadherin-Fc was routinely quantitated using an ELISA for Fc, standardised against purified cadherin-Fc fusion proteins.

binding result [1]: binds
binding result [3]: binds
B1: chicken N-cadherin-Fc fusion protein with the mutation W2G, dimeric (Fc fusion, UniProt P10288 165-728, looked up)
chain: T2 sequence (looked up) with W2G, I80A
notes: extracellular domain; Full length (EC1-EC5) Fc construct; also called W2G mutant; W2G protein; not shown: hinge region, CH2 and CH3 domains of human IgG1 heavy chain (vector pIgSig)
binding result [2]: binds

B2: monomeric chicken N-cadherin-Fc with the double mutation W2G,D134A (Fc fusion, UniProt P10288 165-728, looked up)
chain: T2 sequence (looked up) with W2G, I80A, D134A
notes: extracellular domain; also called the double mutant W2G,D134A; not shown: hinge region, CH2 and CH3 domains of human IgG1 heavy chain (vector pIgSig)
binding result [4]: no binding
